Results published in patent US20170247475A1 (Boehringer Ingelheim, published 2017).

B3: recombinant mouse VEGF164 (ligand, UniProt Q00731-2 27-190, looked up)
chain: APTTEGEQKSHEVIKFMDVYQRSYCRPIETLVDIFQEYPDEIEYIFKPSCVPLMRCAGCCNDEALECVPTSESNITMQIMRIKPHQSQHIGEMSFLQHSRCECRPKKDRTKPENHCEPCSERRKHLFVQDPQTCKCSCKNTDSRCKARQLELNERTCRCDKPRR
notes: biotinylated in the mVEGFR2 AlphaScreen; also called rmVEGF164; mVEGF164

Columns and labels:
human VEGFR1-Fc chimera [1] = target: T1, human VEGFR1-Fc chimera (human, UniProt P17948 27-756); experiment: ELISA, coated KLH conjugated VEGF165
T1 construct: bought (R&D Systems); also called hVEGFR1-Fc
T1 sequence (P17948 27-756, change not shown): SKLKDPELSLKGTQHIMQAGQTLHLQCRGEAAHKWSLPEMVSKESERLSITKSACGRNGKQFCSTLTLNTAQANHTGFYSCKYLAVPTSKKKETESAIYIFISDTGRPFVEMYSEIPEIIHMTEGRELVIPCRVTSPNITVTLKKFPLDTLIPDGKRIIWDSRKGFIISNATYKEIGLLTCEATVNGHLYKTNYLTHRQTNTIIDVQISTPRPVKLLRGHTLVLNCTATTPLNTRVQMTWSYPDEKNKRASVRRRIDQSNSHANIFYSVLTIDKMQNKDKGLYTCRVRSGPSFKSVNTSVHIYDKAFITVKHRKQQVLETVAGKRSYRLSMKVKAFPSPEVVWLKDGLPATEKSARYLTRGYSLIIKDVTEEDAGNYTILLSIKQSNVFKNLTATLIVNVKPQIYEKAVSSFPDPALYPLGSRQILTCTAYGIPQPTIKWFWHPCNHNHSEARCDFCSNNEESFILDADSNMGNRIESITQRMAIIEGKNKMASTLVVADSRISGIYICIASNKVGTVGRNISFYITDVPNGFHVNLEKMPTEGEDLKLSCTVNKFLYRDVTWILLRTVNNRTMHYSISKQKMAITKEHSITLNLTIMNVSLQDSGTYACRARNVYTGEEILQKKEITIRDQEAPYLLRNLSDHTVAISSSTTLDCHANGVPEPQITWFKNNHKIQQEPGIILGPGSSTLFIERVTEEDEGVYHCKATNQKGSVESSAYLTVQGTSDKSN

human VEGFR2-Fc chimera = target: T2, human VEGFR2-Fc chimera (human, UniProt P35968 20-764); experiment: ELISA, coated VEGF109
T2 construct: bought (R&D Systems); also called hVEGFR2-Fc; VEGFR2-huFc
T2 sequence (P35968 20-764, change not shown): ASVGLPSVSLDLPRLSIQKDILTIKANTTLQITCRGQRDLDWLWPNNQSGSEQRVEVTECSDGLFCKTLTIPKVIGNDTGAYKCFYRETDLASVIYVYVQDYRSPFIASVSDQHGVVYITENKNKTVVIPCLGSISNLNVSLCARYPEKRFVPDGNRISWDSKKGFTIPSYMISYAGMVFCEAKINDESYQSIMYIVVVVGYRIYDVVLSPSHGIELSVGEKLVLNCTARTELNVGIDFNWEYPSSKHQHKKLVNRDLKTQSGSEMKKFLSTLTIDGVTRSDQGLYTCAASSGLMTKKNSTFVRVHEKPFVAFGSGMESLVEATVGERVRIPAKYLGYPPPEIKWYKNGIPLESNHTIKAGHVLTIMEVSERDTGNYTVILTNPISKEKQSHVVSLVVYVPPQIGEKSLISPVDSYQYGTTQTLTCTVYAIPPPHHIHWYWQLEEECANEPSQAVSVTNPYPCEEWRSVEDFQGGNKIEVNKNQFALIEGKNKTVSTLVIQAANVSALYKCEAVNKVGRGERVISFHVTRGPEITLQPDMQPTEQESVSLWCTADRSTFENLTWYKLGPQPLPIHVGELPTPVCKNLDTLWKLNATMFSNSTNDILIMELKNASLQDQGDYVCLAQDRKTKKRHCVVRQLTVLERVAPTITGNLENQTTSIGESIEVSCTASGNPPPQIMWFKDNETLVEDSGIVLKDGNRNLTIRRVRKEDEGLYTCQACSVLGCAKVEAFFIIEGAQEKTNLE
Protocol: (§1) Expression is induced by addition of 1 mM IPTG and allowed to continue for 4 hours at 37° C. Cells are harvested by centrifugation and lysed by sonication of the cell pellet. Inclusion bodies are isolated by centrifugation. […] The refolded protein is purified by ion exchange chromatography using a MonoQ5/50GL (Amersham BioSciences) column followed by gel filtration with a Superdex75 10/300 GL column (Amersheim BioSciences). […] To this end, 1 μg/mL of recombinant human VEGF109 is immobilized overnight at 4° C. in a 96-well MaxiSorp plate (Nunc, Wiesbaden, Germany). Wells are blocked with a casein solution (1%).

human VEGFR1-Fc chimera [2] = target: T1, human VEGFR1-Fc chimera; experiment: ELISA, coated VEGF109
Protocol: as §1

mouse VEGFR2-huFc = target: T3, mouse VEGFR2-huFc (mouse, UniProt P35918 20-762, limits assumed); experiment: mVEGF164/mVEGFR2-hFc competition AlphaScreen, unlabelled mVEGF164 as competitor
T3 construct: also called mVEGFR2-huFc; mVEGFR2-hFc
T3 sequence (P35918 20-762 limits assumed): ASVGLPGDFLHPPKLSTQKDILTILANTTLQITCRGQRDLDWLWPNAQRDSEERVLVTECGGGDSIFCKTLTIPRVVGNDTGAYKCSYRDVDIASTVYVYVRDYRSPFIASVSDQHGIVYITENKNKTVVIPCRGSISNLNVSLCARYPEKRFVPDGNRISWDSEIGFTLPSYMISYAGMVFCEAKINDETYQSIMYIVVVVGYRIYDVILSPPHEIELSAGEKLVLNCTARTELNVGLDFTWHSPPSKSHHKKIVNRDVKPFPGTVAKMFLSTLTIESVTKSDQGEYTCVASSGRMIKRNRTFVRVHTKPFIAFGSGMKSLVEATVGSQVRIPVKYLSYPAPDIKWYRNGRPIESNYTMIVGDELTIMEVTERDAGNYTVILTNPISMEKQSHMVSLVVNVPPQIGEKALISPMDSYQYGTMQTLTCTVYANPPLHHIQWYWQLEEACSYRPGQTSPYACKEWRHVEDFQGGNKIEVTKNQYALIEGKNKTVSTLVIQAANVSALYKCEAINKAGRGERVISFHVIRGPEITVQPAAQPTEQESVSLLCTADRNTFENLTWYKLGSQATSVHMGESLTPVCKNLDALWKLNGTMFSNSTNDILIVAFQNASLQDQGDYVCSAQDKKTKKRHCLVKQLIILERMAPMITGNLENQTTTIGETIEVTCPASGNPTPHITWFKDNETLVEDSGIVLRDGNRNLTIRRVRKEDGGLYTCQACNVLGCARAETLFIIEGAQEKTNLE

human VEGF-D = target: T4, human VEGF-D (human, UniProt O43915 93-201); experiment: binding ELISA on coated VEGF D
T4 construct: also called hVEGF-D
T4 sequence (looked up): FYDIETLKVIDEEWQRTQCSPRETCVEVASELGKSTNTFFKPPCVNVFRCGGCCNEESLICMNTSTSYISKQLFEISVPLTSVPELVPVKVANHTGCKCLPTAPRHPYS
Protocol: Binding to VEGFB, VEGFC, VEGFD and PIGF is assessed via a solid phase binding ELISA. In brief, VEGFB, VEGFC, VEGFD and PIGF (R&D Systems, Minneapolis, Minn., USA) are coated overnight at 4° C. at 1 μg/mL in a 96-well MaxiSorp plate (Nunc, Wiesbaden, Germany). Wells are blocked with a casein solution (1% in PBS). […] As positive controls serial dilutions of the appropriate receptors are taken along and detected with horseradish peroxidase (HRP)-conjugated goat anti-human IgG, Fc specific antibody (Jackson Immuno Research Laboratories Inc., West Grove, Pa., USA) and a subsequent enzymatic reaction in the presence of the substrate TMB (3,3′,5,5′-tetramentylbenzidine) (Pierce, Rockford, Ill., USA).

[3] = target: B3; experiment: binding ELISA, coated rmVEGF164
Protocol: Cross-reactivity to mouse VEGF164 is determined using a binding ELISA. […] Wells are blocked with a casein solution (1% in PBS). […] A mouse VEGF164 reactive mAb is included as positive control.

VEGF [4] = experiment: cell-based or functional assay
[5] = target: B3; experiment: mVEGF164/mVEGFR2-hFc competition AlphaScreen
Protocol: Finally, streptavidin donor beads (20 μg/ml) are added and after 1 hour of incubation fluorescence is measured on the Envision microplate reader.

[6] = target: T5, recombinant human VEGF165 (human, UniProt P15692-4 27-191); experiment: VEGF/VEGFR2 competition AlphaScreen
T5 construct: also called hVEGF165; rhVEGF165
Protocol: (§2) Finally, streptavidin donor beads (20 μg/ml) are added and after 1 hour of incubation in the dark, fluorescence is measured on the Envision microplate reader.

human PIGF = target: T6, human PIGF (human, UniProt P49763-2 21-149, limits assumed); experiment: binding ELISA on coated PIGF
T6 construct: also called hPIGF; PLGF
T6 sequence (looked up): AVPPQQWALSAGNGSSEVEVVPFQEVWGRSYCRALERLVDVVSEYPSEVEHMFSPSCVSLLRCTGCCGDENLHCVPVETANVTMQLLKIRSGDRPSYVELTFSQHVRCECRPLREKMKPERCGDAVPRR

[7] = target: T5, recombinant human VEGF165; experiment: hVEGF165/hVEGFR2-Fc competition AlphaScreen
Protocol: as §2

[8] = target: T5, recombinant human VEGF165; experiment: VEGF/VEGFR1 competition AlphaScreen
Protocol: as §2

human VEGF-C = target: T7, human VEGF-C (human, UniProt P49767 103-227); experiment: binding ELISA on coated VEGFC
T7 construct: also called hVEGF-C
T7 sequence (looked up): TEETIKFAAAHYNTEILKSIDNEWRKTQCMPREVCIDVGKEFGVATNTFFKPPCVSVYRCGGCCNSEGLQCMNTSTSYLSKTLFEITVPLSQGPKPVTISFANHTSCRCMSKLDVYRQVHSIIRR

[9] = target: T8, recombinant human VEGF121 (human, UniProt P15692-9 27-147); experiment: binding ELISA, coated rhVEGF121
T8 construct: also called rhVEGF121; hVEGF121
T8 sequence (looked up): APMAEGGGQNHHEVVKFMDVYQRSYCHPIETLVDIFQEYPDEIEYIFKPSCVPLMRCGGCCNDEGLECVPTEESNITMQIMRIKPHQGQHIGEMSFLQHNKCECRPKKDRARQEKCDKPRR
Protocol: Binding to recombinant human VEGF121 is assessed via a solid phase binding ELISA. Briefly, recombinant human VEGF121 (R&D Systems, Minneapolis, Minn., USA) is coated overnight at 4° C. at 1 μg/mL in a 96-well MaxiSorp plate (Nunc, Wiesbaden, Germany). Wells are blocked with a casein solution (1% in PBS).

[10] = target: T5, recombinant human VEGF165; experiment: hVEGF165/hVEGFR2-Fc competition ELISA
[11] = target: T5, recombinant human VEGF165; experiment: kd1; SPR Biacore T100, hVEGF165 on chip, Two State Reaction model
[12] = target: T5, recombinant human VEGF165; experiment: SPR Biacore T100, Two State Reaction model; KD = kd1/ka1 * (kd2/(kd2 + ka2))
VEGF [13] = experiment: cell-based or functional assay; remark: listed apart in the source
[14] = target: T5, recombinant human VEGF165; experiment: VEGF165/hVEGFR1-Fc competition AlphaScreen
Protocol: as §2

[15] = target: T5, recombinant human VEGF165; experiment: ka1; SPR Biacore T100, hVEGF165 on chip, Two State Reaction model
human VEGF-B = target: T9, human VEGF-B (human, UniProt P49765-2 22-188, limits assumed); experiment: binding ELISA on coated VEGFB
T9 construct: also called hVEGF-B
T9 sequence (looked up): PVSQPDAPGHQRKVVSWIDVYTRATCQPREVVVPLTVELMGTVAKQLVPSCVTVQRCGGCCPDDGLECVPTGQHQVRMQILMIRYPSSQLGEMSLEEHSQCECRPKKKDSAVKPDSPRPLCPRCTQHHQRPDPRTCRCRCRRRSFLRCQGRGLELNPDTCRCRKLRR

[16] = target: T5, recombinant human VEGF165; experiment: binding ELISA, coated rhVEGF165
[17] = target: T5, recombinant human VEGF165; experiment: VEGF165/hVEGFR1-Fc competition ELISA
[18] = target: T5, recombinant human VEGF165; experiment: SPR Biacore T100, hVEGF165 on chip, Two State Reaction model

B1: KLH conjugated VEGF165 (ligand, human, UniProt P15692-4 27-191, looked up)
chain: APMAEGGGQNHHEVVKFMDVYQRSYCHPIETLVDIFQEYPDEIEYIFKPSCVPLMRCGGCCNDEGLECVPTEESNITMQIMRIKPHQGQHIGEMSFLQHNKCECRPKKDRARQENPCGPCSERRKHLFVQDPQTCKCSCKNTDSRCKARQLELNERTCRCDKPRR
modifications: conjugated to mariculture keyhole limpet hemocyanin (mcKLH) with EDC
notes: also called VEGF165-KLH
- binding result (human VEGFR1-Fc chimera [1]): binds

B2: recombinant human VEGF109 (ligand, UniProt P15692 207-315, looked up)
chain: APMAEGGGQNHHEVVKFMDVYQRSYCHPIETLVDIFQEYPDEIEYIFKPSCVPLMRCGGCCNDEGLECVPTEESNITMQIMRIKPHQGQHIGEMSFLQHNKCECRPKKD
notes: also called rhVEGF109
- binding result (human VEGFR2-Fc chimera): binds
- binding result (human VEGFR1-Fc chimera [2]): binds

Binder: B3
- IC50 (mouse VEGFR2-huFc): 0.05 nM

B4: VEGFBII022 (VHH)
chain: EVQLVESGGGLVQTGDSLRLSCEVSGRTFSSYSMGWFRQAQGKEREFVVAISKGGYKYDSVSLEGRFTISKDNAKNTVYLQINSLKPEDTAVYYCASSRAYGSSRLRLADTYEYWGQGTQVTVSSGGGGSGGGSEVQLVESGGGLVQPGGSLRLSCVASGIRFMSMAWYRQAPGKHRELVARISSGGTTAYVDSVKGRFTISRDNSKNTVYLQMNSLKAEDTAVYYCNTFSSRPNPWGAGTQVTVSS
notes: biparatopic bivalent VHH in one chain; also called VEGFBII23B04-9GS-5B05
- binding result (human VEGF-D): no binding (tested: 5e-7 M)
- EC50 [3]: 0.464 nM
- % inhibition, VEGF HUVEC proliferation assay (VEGF [4]): 100%
- IC50 (nM), VEGF HUVEC proliferation assay (VEGF [4]): 0.34 nM
- IC50 [5]: 108 nM
- IC50 [6]: 0.007 nM
- binding result (human PIGF): no binding (tested: 5e-7 M)
- % inhibition [7]: 100%
- IC50 [7]: 0.007 nM
- % inhibition [8]: 100%
- IC50 [8]: 0.008 nM
- binding result (human VEGF-C): no binding (tested: 5e-7 M)
- EC50 [9]: 0.54 nM
- % inhibition [10]: 100%
- IC50 [10]: 0.164 nM
- koff [11]: 0.0091 s⁻¹
- Kd [12]: 0.14 nM
- % inhibition, VEGF HUVEC Erk phosphorylation assay (VEGF [13]): 94%
- IC50 (nM), VEGF HUVEC Erk phosphorylation assay (VEGF [13]): 0.18 nM
- % inhibition [14]: 98%
- IC50 [14]: 0.009 nM
- kon [15]: 1.2e+06 M⁻¹ s⁻¹
- binding result (human VEGF-B): no binding (tested: 5e-7 M)
- EC50 [16]: 0.224 nM
- % inhibition [17]: 89%
- IC50 [17]: 0.225 nM
- ka2 [18]: 0.014 s⁻¹
- kd2 [18]: 0.00026 s⁻¹
